Experimental data published in PMC10027727, “Structure and dynamics of the Arabidopsis O-fucosyltransferase SPINDLY” (Nature Communications, 2023).

Legend:
[1] = target: the molecule itself; assay: cryo-EM 2D class averages; apo SPY, flash-frozen solution; tetramer formed by side-by-side stacking of two SPY dimers
[2] = target: the molecule itself; assay: cryo-EM structure; apo SPY, ~0.8 mg/mL, 25 mM HEPES pH 7.5, 150 mM NaCl, 2 mM DTT; three conformations of the dimer at 3.6 to 3.9 Å
[3] = target: T1, Myc-spy Δ216 (deletion of residues 1-216, the N-terminal peptide and TPRs 1-5) (Arabidopsis thaliana, UniProt Q96301 217-914); assay: co-IP; FLAG-RGA co-expressed with Myc-SPY, Myc-spy mutants or Myc-GUS in N. benthamiana; IP with anti-cMyc agarose, blots with αMyc and αFLAG; co-IP'ed FLAG-RGA normalised to the IP'ed Myc protein, WT SPY set as 1; conditions: partners not purified
T1 construct: source: N. benthamiana, transient expression by agroinfiltration, in protein extract
T1 sequence (looked up): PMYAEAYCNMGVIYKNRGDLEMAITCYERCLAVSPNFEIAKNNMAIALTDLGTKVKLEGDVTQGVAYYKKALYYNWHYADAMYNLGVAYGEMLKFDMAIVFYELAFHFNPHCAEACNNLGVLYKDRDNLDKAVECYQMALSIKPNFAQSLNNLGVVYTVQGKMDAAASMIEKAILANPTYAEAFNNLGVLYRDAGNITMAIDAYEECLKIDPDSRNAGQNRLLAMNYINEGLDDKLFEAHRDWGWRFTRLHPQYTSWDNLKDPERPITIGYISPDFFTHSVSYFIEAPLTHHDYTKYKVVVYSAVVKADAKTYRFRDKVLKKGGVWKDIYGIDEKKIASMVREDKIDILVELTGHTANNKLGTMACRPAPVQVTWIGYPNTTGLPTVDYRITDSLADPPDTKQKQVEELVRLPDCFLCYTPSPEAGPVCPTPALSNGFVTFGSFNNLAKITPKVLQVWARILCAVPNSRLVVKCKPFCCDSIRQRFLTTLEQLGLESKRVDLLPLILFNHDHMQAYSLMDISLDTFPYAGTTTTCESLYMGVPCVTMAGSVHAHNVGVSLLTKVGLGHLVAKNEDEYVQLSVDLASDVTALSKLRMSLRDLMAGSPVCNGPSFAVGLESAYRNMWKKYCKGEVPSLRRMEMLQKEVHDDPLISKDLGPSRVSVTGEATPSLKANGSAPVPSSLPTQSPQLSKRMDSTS

B1: Recombinant full-length Arabidopsis thaliana SPINDLY (SPY-WT-TEV-His10-Strep) (enzyme, UniProt Q96301 1-914, looked up)
chain: MVGLEDDTERERSPVVENGFSNGSRSSSSSAGVLSPSRKVTQGNDTLSYANILRARNKFADALALYEAMLEKDSKNVEAHIGKGICLQTQNKGNLAFDCFSEAIRLDPHNACALTHCGILHKEEGRLVEAAESYQKALMADASYKPAAECLAIVLTDLGTSLKLAGNTQEGIQKYYEALKIDPHYAPAYYNLGVVYSEMMQYDNALSCYEKAALERPMYAEAYCNMGVIYKNRGDLEMAITCYERCLAVSPNFEIAKNNMAIALTDLGTKVKLEGDVTQGVAYYKKALYYNWHYADAMYNLGVAYGEMLKFDMAIVFYELAFHFNPHCAEACNNLGVLYKDRDNLDKAVECYQMALSIKPNFAQSLNNLGVVYTVQGKMDAAASMIEKAILANPTYAEAFNNLGVLYRDAGNITMAIDAYEECLKIDPDSRNAGQNRLLAMNYINEGLDDKLFEAHRDWGWRFTRLHPQYTSWDNLKDPERPITIGYISPDFFTHSVSYFIEAPLTHHDYTKYKVVVYSAVVKADAKTYRFRDKVLKKGGVWKDIYGIDEKKIASMVREDKIDILVELTGHTANNKLGTMACRPAPVQVTWIGYPNTTGLPTVDYRITDSLADPPDTKQKQVEELVRLPDCFLCYTPSPEAGPVCPTPALSNGFVTFGSFNNLAKITPKVLQVWARILCAVPNSRLVVKCKPFCCDSIRQRFLTTLEQLGLESKRVDLLPLILFNHDHMQAYSLMDISLDTFPYAGTTTTCESLYMGVPCVTMAGSVHAHNVGVSLLTKVGLGHLVAKNEDEYVQLSVDLASDVTALSKLRMSLRDLMAGSPVCNGPSFAVGLESAYRNMWKKYCKGEVPSLRRMEMLQKEVHDDPLISKDLGPSRVSVTGEATPSLKANGSAPVPSSLPTQSPQLSKRMDSTS
modifications: fully auto-O-fucosylated (sites not mapped for the insect-cell protein)
notes: SPINDLY (SPY), Arabidopsis thaliana, full length (101.4 kDa), UniProt Q96301; The tag end is read from the construct name SPY-WT-TEV-His10-Strep; A TEV site lies between SPY and the tags; no cleavage is described; also called WT SPY; apo SPY; source: Trichoplusia ni (High Five) insect cells, baculovirus, purified (Talon, Strep-Tactin, SEC)
[1]
  stoichiometry N: 4
[2]
  stoichiometry N: 2

B2: FLAG-RGA (35S:FLAG-RGA, pEG100-3xFR; contains a 6xHis-3xFLAG tag) (natural protein, Arabidopsis, UniProt Q9SLH3 1-587, looked up)
chain: MKRDHHQFQGRLSNHGTSSSSSSISKDKMMMVKKEEDGGGNMDDELLAVLGYKVRSSEMAEVALKLEQLETMMSNVQEDGLSHLATDTVHYNPSELYSWLDNMLSELNPPPLPASSNGLDPVLPSPEICGFPASDYDLKVIPGNAIYQFPAIDSSSSSNNQNKRLKSCSSPDSMVTSTSTGTQIGGVIGTTVTTTTTTTTAAGESTRSVILVDSQENGVRLVHALMACAEAIQQNNLTLAEALVKQIGCLAVSQAGAMRKVATYFAEALARRIYRLSPPQNQIDHCLSDTLQMHFYETCPYLKFAHFTANQAILEAFEGKKRVHVIDFSMNQGLQWPALMQALALREGGPPTFRLTGIGPPAPDNSDHLHEVGCKLAQLAEAIHVEFEYRGFVANSLADLDASMLELRPSDTEAVAVNSVFELHKLLGRPGGIEKVLGVVKQIKPVIFTVVEQESNHNGPVFLDRFTESLHYYSTLFDSLEGVPNSQDKVMSEVYLGKQICNLVACEGPDRVERHETLSQWGNRFGSSGLAPAHLGSNAFKQASMLLSVFNSGQGYRVEESNGCLMLGWHTRPLITTSAWKLSTAAY
notes: RGA, an Arabidopsis DELLA protein; called the full-length RGA substrate in planta; RGA is O-fucosylated by the co-expressed SPY to differing degrees; also called His-FLAG-RGA; source: N. benthamiana, transient expression by agroinfiltration, in protein extract
[3]
  fold change of co-IP'ed FLAG-RGA against WT SPY: 6.3 fold
